The target of the data set is Progesterone receptor isoform B (PRB) (Homo sapiens, UniProt P06401 1-933). As to the kind of experiment: EMSA.
Progesterone receptor isoform B (PRB), sequence (P06401 whole entry, canonical isoform): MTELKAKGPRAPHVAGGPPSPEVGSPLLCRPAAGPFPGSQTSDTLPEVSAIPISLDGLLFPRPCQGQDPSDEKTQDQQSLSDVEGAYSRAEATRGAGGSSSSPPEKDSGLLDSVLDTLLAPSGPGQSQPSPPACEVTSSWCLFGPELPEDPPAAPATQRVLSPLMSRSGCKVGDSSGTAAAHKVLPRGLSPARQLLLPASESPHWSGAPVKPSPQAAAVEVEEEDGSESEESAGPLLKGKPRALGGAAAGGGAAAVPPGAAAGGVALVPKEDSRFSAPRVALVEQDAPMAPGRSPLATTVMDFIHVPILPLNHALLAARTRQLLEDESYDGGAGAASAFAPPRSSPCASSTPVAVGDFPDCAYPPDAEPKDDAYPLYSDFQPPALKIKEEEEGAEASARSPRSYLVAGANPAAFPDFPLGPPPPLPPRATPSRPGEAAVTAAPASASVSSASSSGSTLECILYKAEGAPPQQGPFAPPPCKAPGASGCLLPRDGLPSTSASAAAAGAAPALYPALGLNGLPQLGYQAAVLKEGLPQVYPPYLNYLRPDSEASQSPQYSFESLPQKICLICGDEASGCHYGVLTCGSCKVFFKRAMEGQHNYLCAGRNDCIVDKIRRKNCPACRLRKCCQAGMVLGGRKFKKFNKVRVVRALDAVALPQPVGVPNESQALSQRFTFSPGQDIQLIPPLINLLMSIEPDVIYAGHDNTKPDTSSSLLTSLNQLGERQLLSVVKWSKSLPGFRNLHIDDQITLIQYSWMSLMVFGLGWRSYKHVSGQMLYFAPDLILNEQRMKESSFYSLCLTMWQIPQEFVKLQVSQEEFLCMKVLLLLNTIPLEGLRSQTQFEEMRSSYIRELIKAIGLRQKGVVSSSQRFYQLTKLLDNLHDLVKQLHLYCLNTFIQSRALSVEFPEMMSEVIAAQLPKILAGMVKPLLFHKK

B1: PRE (dsDNA)
DNA 1: GTTACAAACTGTTCT
DNA 2: AGAACAGTTTGTAAC
As for B1, the binding result was “binds”.

Source of the values: article PMC1635300.
